We go through 12 molecules from doi:10.1101/2022.12.19.520972 (bioRxiv, 2022).

Sequences and labels used below:
T1: PEX13 SH3 (261-346) (human, UniProt Q92968 261-346)
T1 sequence: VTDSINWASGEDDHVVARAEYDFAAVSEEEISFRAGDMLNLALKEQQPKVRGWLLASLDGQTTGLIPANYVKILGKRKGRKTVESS

B1: PEX14 NTD (1-104) (domain or fragment)
chain: MASSEQAEQPSQPSSTPGSENVLPREPLIATAVKFLQNSRVRQSPLATRRAFLKKKGLTDEEIDMAFQQSGTAADEPSSLGPATQVVPVQPPHLISQPYSPAGS
B2: PEX13 FxxxF (350-403) (domain or fragment)
chain: KQQQSFTNPTLTKGATVADSLDEQEAAFESVFVETNKVPVAPDSIGKDGEKQDL
B3: PEX13 SH3-CTR (261-403) (domain or fragment)
chain: VTDSINWASGEDDHVVARAEYDFAAVSEEEISFRAGDMLNLALKEQQPKVRGWLLASLDGQTTGLIPANYVKILGKRKGRKTVESSKVSKQQQSFTNPTLTKGATVADSLDEQEAAFESVFVETNKVPVAPDSIGKDGEKQDL
B4: PEX13 C-terminal peptide FxxxF to PEX5 W4 (domain or fragment)
chain: QQQSFTNPTLTKGATVADSLDEQEAAWYDEYVETNKVPVAPDSIGKDGEKQDL

Assay [1] concerns the target B1. Nature of the assay: ITC. (In general: ITC needs no label: the signal is the heat of the interaction.)
Assay [2] concerns the target B3. The assay is described as follows: ITC.
The target in assay [3] is T1, PEX13 SH3 (261-346). The assay is described as follows: ITC.
Assay [4] concerns the target B3. The assay is described as follows: NMR titration.
Assay [5] has as its target T1, PEX13 SH3 (261-346). The assay is described as follows: NMR titration.

In the case of AQAEQWAAEFIQQQG [PEX5 W5], in assay [1], the binding result is listed as “binds”.
As to TATDRWYDEYHPEED [PEX5 W4], the Kd – broadly, the equilibrium constant for the complex coming apart – in assay [1] turned out to be 3.14 µM.
Turning to B1, in assay [2], the Kd stood at 5.4 µM. This lies in the single-digit micromolar range.
Regarding ALSENWAQEFLAAGD [PEX5 W1], the binding result in assay [1] is “binds”.
For B2, in assay [1], binding was put at a Kd of 2.8 µM and the stoichiometry N – broadly, the number of molecules, sites or subunits per partner or assembly – came to 1. Also, the Kd in assay [3] came to 27 µM.
On to VSPARWAEEYLEQSE [PEX5 W3], for which the binding result in assay [1] is reported as “binds”.
Turning to B3, the “stoichiometry N” value in assay [1] is 1.
For GTSDAWVDQFTRPVN [PEX5 W6], in assay [1], the binding result is given as “binds”.
On the same count and under the same terms, under YNETDWSQEFISEVT [PEX5 W2] stands “binds”; under AEAHPWLSDYDDLTS [PEX5 W7], “binds”.
TRVPPPILPRPSQ [PEX13 PxxP peptide (49-61)]: the binding result in assay [4] and in assay [5] was “binds” each time.
As to B4, in assay [3], the Kd is approximately 6 µM and the “stoichiometry N” value was 1.
